Test [1] deals with H3K9me3 peptide, FITC-labeled. Briefly: fluorescence polarisation; 0.5 nM FITC-labeled peptide, chromodomain serially diluted (wild types 200-0.2 µM; Cbx7.V1 and Cbx.VDs 50 µM-50 nM); 25 °C, 30 min; 25 mM HEPES pH 7.5, 150 mM NaCl, 1 mM DTT, 0.01% TritonX-100; one-site total binding model; values of single replicates. (Polarisation of emitted light reports the rotation of a fluorescent probe.)

Test [2] has as its target FITC-labeled H3K9me3 peptide. Briefly: fluorescence polarisation; 0.5 nM FITC-labeled peptide, chromodomain serially diluted (wild type 200-0.2 µM; Cbx7.V1 50 µM-50 nM); 25 mM HEPES pH 7.5, 150 mM NaCl, 1 mM DTT, 0.01% TritonX-100; 30 min at 25 °C; one-site total binding model.
The target in test [3] is H3K27 peptide (non-methylated), N-terminal biotin. Briefly: phage ELISA. As to conditions: read off a plot. In general terms: ELISA stands for enzyme-linked immunosorbent assay.
In test [4] the target is H3K27me3 peptide, N-terminal biotin. Briefly: phage ELISA. The settings on record: read off a plot.
The target of test [5] is H3K9me3 peptide, N-terminal FITC. The test can be described thus: fluorescence polarisation; 0.5 nM FITC-labelled peptide; chromodomains 200-0.2 µM (wild type) or 50 µM-50 nM (Cbx7.V1 and all Cbx.VDs); 30 min at 25 °C; 25 mM HEPES pH 7.5, 150 mM NaCl, 1 mM DTT, 0.01% TritonX-100; one-site total binding model.
For test [6], the target named is H3K27me3 peptide, N-terminal FITC. Described as above.
Test [7] addresses H3K27me3 peptide, FITC-labeled. Briefly: fluorescence polarisation; 0.5 nM FITC-labeled peptide, chromodomain serially diluted (wild types 200-0.2 µM; Cbx7.V1 and Cbx.VDs 50 µM-50 nM); 25 °C, 30 min; 25 mM HEPES pH 7.5, 150 mM NaCl, 1 mM DTT, 0.01% TritonX-100; one-site total binding model; values of single replicates.
The target in test [8] is Histone H3 H3K9me3 peptide (Homo sapiens) (UniProt P68431). As to conditions: cited from earlier work.

Where “and” joins values, the source holds several entries; their conditions need not be identical. Equal values may be shown once.

A word on the Kd: it is the equilibrium constant for the complex coming apart. With “Cbx5 chromodomain with the Asp9/Glu33 double substitution (from UniProt P45973 18-75) (domain or fragment)”, the Kd in test [1] is 560 nM and 440 nM and 510 nM. Still for that read-out and setting: the value for “Cbx3 chromodomain with the Asp9/Glu33 double substitution (from UniProt Q13185 29-86) (domain or fragment)” was 390 nM and 290 nM and 370 nM. Cbx7.wt (domain or fragment) returned a Kd in test [2] of 27000 nM. Take “Cbx7.wt G7C; E8D; Q9N; F11Y; A12P; P37L; K38E”: the response (Absorbance at 450 nm) is 0.11 in test [3] and 1.9 in test [4]. As for “Cbx1.VD chromodomain, Asp9/Glu33 (tags removed) (from UniProt P83916 20-73) (domain or fragment)”, the Kd in test [5] worked out at 600 nM. “Cbx3.VD chromodomain, Asp9/Glu33 (tags removed) (from UniProt Q13185 29-86) (domain or fragment)”: the Kd in test [5] is 350 nM.

With “Cbx8.VD chromodomain, Asp9/Glu33 (tags removed) (from UniProt Q9HC52 8-61) (domain or fragment)”, the Kd in test [6] is more than 50000 nM; in test [5], 20000 nM.

With Cbx7.wt G7C; E8D; Q9N; K33E; P37Q; K38E, the response (Absorbance at 450 nm) was 0.09 in test [3] and 0.52 in test [4]. “Cbx2 chromodomain with the Asp9/Glu33 double substitution (from UniProt Q14781 9-62) (domain or fragment)”: the Kd in test [7] is 2400 nM and 2100 nM and 4300 nM; in test [1], 4000 nM and 6000 nM and 5000 nM. In the case of Cbx7.wt G7F; Q9D; A12P; P37S; K38E, the response (Absorbance at 450 nm) in test [3] came out at 0.13; in test [4], 0.73. Consider “Cbx8 chromodomain with the Asp9/Glu33 double substitution (from UniProt Q9HC52 8-61) (domain or fragment)”, for which the Kd in test [1] is 21000 nM and 26000 nM and 16000 nM. Regarding “Cbx5.VD chromodomain, Asp9/Glu33 (tags removed) (from UniProt P45973 18-75) (domain or fragment)”, the Kd in test [5] was determined as 500 nM. Consider “Cbx2.VD chromodomain, Asp9/Glu33 (tags removed) (from UniProt Q14781 9-62) (domain or fragment)”, for which the Kd was found to be 3000 nM in test [6] and 5000 nM in test [5]. Substance “Cbx7.wt E8D; Q9D; V10I; K33E; P37L; K38E” yielded a response (Absorbance at 450 nm) in test [3] of 0.12. For Cbx7 chromodomain (from UniProt O95931), the Kd in test [8] was 55000 nM. Regarding “Cbx7.wt E8H; Q9D; A12P; K33R; G34D; P37E; K38Q”, the response (Absorbance at 450 nm) in test [3] came out at 0.08; in test [4] it was 0.55.

Turning to “Cbx1 chromodomain with the Asp9/Glu33 double substitution (from UniProt P83916 20-73) (domain or fragment)”, the Kd in test [1] is 582 nM and 632 nM and 600 nM.

As to “Cbx7.wt G7C; Q9Y; V10I; A12S; K33E; K38E; S40M”, the response (Absorbance at 450 nm) in test [3] is 0.12; in test [4], 0.5.

These data come from PMC9666628.
